# Experimental data reported in patent publication US20230220589A1.
# B1: engineered M44-L binder (SEQ ID NO: 31) (designed binder, not shown: small tags and cut ends; large carriers)
# chain: QDSTQNLIPAPPLISVPLQPGFWTERFQGRWFLVGFAGNAVQKERQSRLTMQSLILELQEDNSYNITAINVRGQGCRYIISTLVPSSRPGQFTLGNIHSYPQIQSLDVQVADTDYDQFAMVFLQGTSENKQYFEVALAGRTKGLSDELKERFVSFAKSLGLKDNNIVFSVPTDQCIDN
# B2: engineered M44-L binder (SEQ ID NO: 21) (designed binder, not shown: small tags and cut ends; large carriers)
# chain: QVSVQPNFQQDKFLGRWFYAGHASNSSWYREKVAALSMAKLVVAPATDGGLNATETFLRKNQCETITSLLQPAGSLGSYSSRSPHGGSTWSTSVVETDYDQYALLYLQGSKGPGEDFRGAILASRTQTPRAELKEKFTAFSKAQGFTEDTIVFLPQTDKCMTEQ
# How the values were obtained:
# [1] = target: M44-modified Y NTAA target peptides (M44-Y-P2-peptide); assay: encoding assay; P2 S;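 also: fraction of recording tags encoded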
# [2] = target: M44-modified G NTAA target peptides (M44-G-P2-peptide); assay: encoding assay; P2 S;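 also: fraction of recording tags encoded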
# [3] = target: M44-modified I NTAA target peptides (M44-I-P2-peptide); assay: encoding assay; P2 S
# [4] = target: M44-modified M NTAA target peptides; assay: encoding assay; P2 S
# [5] = target: M44-modified P NTAA target peptides; assay: encoding assay; P2 S;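 also: fraction of recording tags encoded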
# [6] = target: M44-modified V NTAA target peptides; assay: encoding assay; P2 S;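 also: fraction of recording tags encoded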
# [7] = target: M44-modified Q NTAA target peptides; assay: encoding assay; P2 S
# [8] = target: M44-modified A NTAA target peptides (M44-A-P2-peptide); assay: encoding assay; P2 S
# [9] = target: M44-modified L NTAA target peptides (M44-L-P2-peptide); assay: encoding assay; P2 S;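 also: fraction of recording tags encoded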
# [10] = target: M44-modified T NTAA target peptides; assay: encoding assay; P2 S
# [11] = target: M44-modified F NTAA target peptides (M44-F-P2-peptide); assay: encoding assay; P2 S;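 also: fraction of recording tags encoded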
# [12] = target: M44-modified H NTAA target peptides; assay: encoding assay; P2 S
# [13] = target: M44-modified Y NTAA target peptides (M44-Y-P2-peptide); assay: encoding assay; P2 E;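 also: fraction of recording tags encoded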
# [14] = target: M44-modified I NTAA target peptides (M44-I-P2-peptide); assay: encoding assay; P2 E
# [15] = target: M44-modified M NTAA target peptides; assay: encoding assay; P2 E
# [16] = target: M44-modified N NTAA target peptides; assay: encoding assay; P2 E
# [17] = target: M44-modified W NTAA target peptides; assay: encoding assay; P2 E;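 also: fraction of recording tags encoded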
# [18] = target: M44-modified S NTAA target peptides; assay: encoding assay; P2 E
# [19] = target: M44-modified D NTAA target peptides; assay: encoding assay; P2 E;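 also: fraction of recording tags encoded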
# [20] = target: M44-modified P NTAA target peptides; assay: encoding assay; P2 E;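 also: fraction of recording tags encoded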
# [21] = target: M44-modified V NTAA target peptides; assay: encoding assay; P2 E;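 also: fraction of recording tags encoded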
# [22] = target: M44-modified Q NTAA target peptides; assay: encoding assay; P2 E
# [23] = target: M44-modified A NTAA target peptides (M44-A-P2-peptide); assay: encoding assay; P2 E
# [24] = target: M44-modified L NTAA target peptides (M44-L-P2-peptide); assay: encoding assay; P2 E;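 also: fraction of recording tags encoded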
# [25] = target: M44-modified T NTAA target peptides; assay: encoding assay; P2 E
# [26] = target: M44-modified F NTAA target peptides (M44-F-P2-peptide); assay: encoding assay; P2 E;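 also: fraction of recording tags encoded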
# [27] = target: M44-modified H NTAA target peptides; assay: encoding assay; P2 E
# [28] = target: M44-modified E NTAA target peptides; assay: encoding assay; P2 E;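 also: fraction of recording tags encoded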
# [29] = target: M44-modified I NTAA target peptides (M44-I-P2-peptide); assay: encoding assay; P2 A
# [30] = target: M44-modified M NTAA target peptides; assay: encoding assay; P2 A
# [31] = target: M44-modified N NTAA target peptides; assay: encoding assay; P2 A
# [32] = target: M44-modified W NTAA target peptides; assay: encoding assay; P2 A;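 also: fraction of recording tags encoded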
# [33] = target: M44-modified V NTAA target peptides; assay: encoding assay; P2 A;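 also: fraction of recording tags encoded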
# [34] = target: M44-modified Q NTAA target peptides; assay: encoding assay; P2 A
# [35] = target: M44-modified A NTAA target peptides (M44-A-P2-peptide); assay: encoding assay; P2 A
# [36] = target: M44-modified L NTAA target peptides (M44-L-P2-peptide); assay: encoding assay; P2 A;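 also: fraction of recording tags encoded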
# [37] = target: M44-modified H NTAA target peptides; assay: encoding assay; P2 A
# [38] = target: M44-modified Y NTAA target peptides (M44-Y-P2-peptide); assay: encoding assay; P2 Y;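 also: fraction of recording tags encoded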
# [39] = target: M44-modified G NTAA target peptides (M44-G-P2-peptide); assay: encoding assay; P2 Y;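 also: fraction of recording tags encoded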
# [40] = target: M44-modified I NTAA target peptides (M44-I-P2-peptide); assay: encoding assay; P2 Y
# [41] = target: M44-modified M NTAA target peptides; assay: encoding assay; P2 Y
# [42] = target: M44-modified N NTAA target peptides; assay: encoding assay; P2 Y
# [43] = target: M44-modified W NTAA target peptides; assay: encoding assay; P2 Y;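 also: fraction of recording tags encoded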
# [44] = target: M44-modified D NTAA target peptides; assay: encoding assay; P2 Y;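 also: fraction of recording tags encoded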
# [45] = target: M44-modified P NTAA target peptides; assay: encoding assay; P2 Y;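 also: fraction of recording tags encoded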
# [46] = target: M44-modified A NTAA target peptides (M44-A-P2-peptide); assay: encoding assay; P2 Y
# [47] = target: M44-modified L NTAA target peptides (M44-L-P2-peptide); assay: encoding assay; P2 Y;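 also: fraction of recording tags encoded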
# [48] = target: M44-modified T NTAA target peptides; assay: encoding assay; P2 Y
# [49] = target: M44-modified F NTAA target peptides (M44-F-P2-peptide); assay: encoding assay; P2 Y;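 also: fraction of recording tags encoded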
# [50] = target: M44-modified H NTAA target peptides; assay: encoding assay; P2 Y
# [51] = target: M44-modified E NTAA target peptides; assay: encoding assay; P2 Y;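 also: fraction of recording tags encoded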
binder,measurement,setting,value
B1,encoding yield,[1],0.07
same,encoding yield,[2],0.04
same,encoding yield,[3],0.07
same,encoding yield,[4],0.07
same,encoding yield,[5],0.01
same,encoding yield,[6],0.03
same,encoding yield,[7],0.02
same,encoding yield,[8],0.02
same,encoding yield,[9],0.15
same,encoding yield,[10],0.03
same,encoding yield,[11],0.06
same,encoding yield,[12],0.03
same,encoding yield,[13],0.05
same,encoding yield,[14],0.01
same,encoding yield,[15],0.01
same,encoding yield,[16],0.01
same,encoding yield,[17],0.03
same,encoding yield,[18],0.03
same,encoding yield,[19],0.02
same,encoding yield,[20],0.03
same,encoding yield,[21],0.02
same,encoding yield,[22],0.02
same,encoding yield,[23],0.03
same,encoding yield,[24],0.03
same,encoding yield,[25],0.02
same,encoding yield,[26],0.01
same,encoding yield,[27],0.02
same,encoding yield,[28],0.02
same,encoding yield,[29],0.07
same,encoding yield,[30],0.05
same,encoding yield,[31],0.02
same,encoding yield,[32],0.08
same,encoding yield,[33],0.02
same,encoding yield,[34],0.02
same,encoding yield,[35],0.02
same,encoding yield,[36],0.14
same,encoding yield,[37],0.01
same,encoding yield,[38],0.06
same,encoding yield,[39],0.04
same,encoding yield,[40],0.16
same,encoding yield,[41],0.14
same,encoding yield,[42],0.02
same,encoding yield,[43],0.15
same,encoding yield,[44],0.05
same,encoding yield,[45],0.03
same,encoding yield,[46],0.05
same,encoding yield,[47],0.42
same,encoding yield,[48],0.05
same,encoding yield,[49],0.13
same,encoding yield,[50],0.09
same,encoding yield,[51],0.03
B2,encoding yield,[1],0.04
same,encoding yield,[2],0.01
same,encoding yield,[3],0.18
same,encoding yield,[4],0.07
same,encoding yield,[5],0.01
same,encoding yield,[6],0.04
same,encoding yield,[7],0.01
same,encoding yield,[8],0.01
same,encoding yield,[9],0.27
same,encoding yield,[10],0.01
same,encoding yield,[11],0.07
same,encoding yield,[12],0.01
same,encoding yield,[13],0.02
same,encoding yield,[14],0
same,encoding yield,[15],0
same,encoding yield,[16],0.01
same,encoding yield,[17],0.01
same,encoding yield,[18],0.01
same,encoding yield,[19],0.01
same,encoding yield,[20],0.01
same,encoding yield,[21],0.01
same,encoding yield,[22],0.01
same,encoding yield,[23],0.01
same,encoding yield,[24],0.01
same,encoding yield,[25],0.01
same,encoding yield,[26],0
same,encoding yield,[27],0.01
same,encoding yield,[28],0.01
same,encoding yield,[29],0.29
same,encoding yield,[30],0.06
same,encoding yield,[31],0.01
same,encoding yield,[32],0.01
same,encoding yield,[33],0.01
same,encoding yield,[34],0.01
same,encoding yield,[35],0.01
same,encoding yield,[36],0.19
same,encoding yield,[37],0.01
same,encoding yield,[38],0.02
same,encoding yield,[39],0.01
same,encoding yield,[40],0.07
same,encoding yield,[41],0.04
same,encoding yield,[42],0.01
same,encoding yield,[43],0.01
same,encoding yield,[44],0.01
same,encoding yield,[45],0.02
same,encoding yield,[46],0.01
same,encoding yield,[47],0.08
same,encoding yield,[48],0.01
same,encoding yield,[49],0.02
same,encoding yield,[50],0.03
same,encoding yield,[51],0.01
